The results in this text go back to patent US8846861B2, “Peptide clearing agents” (Mologic Ltd, priority 2009, dated 2014).

The assay relates to CCL 229 (LoVo) CEA expressing cell line. Nature of the assay: Flow cytometry cell binding, CEA expressing cell line. Format: cell-based. Conditions: CCL 229, PE label, 1 hour at 4° C. The method, then: Measurement by Flow Cytometry of Binding Capability of scFv Anti-CEA-CPG2 Using CEA Expressing Cells.
CRL 1573—control cell line, CCL 229 (LoVo)—CEA expressing cell line
Cultured cells were both used at 2×10^5 cells per tube, cells in tubes were prepared to contain the following
Cells were spun down and 100 μl of antibody solution was added to respective tube. 100 μl buffer was added to tubes 1 and 2 and left in fridge until later.
Tubes were incubated in the dark at 4° C. for 1 hour, add 1 ml PBSAB and spun as above. Include tube 1 in this wash. The supernatant was removed and 100 μl conjugate was added to tube 6 for a further incubation of 1 hr in the dark at 4° C.
Added 150 μl 0.5% formaldehyde to tubes 1, 3, 4 and 5, stored in the fridge until measured (˜2 hours). Washed tube 6 as before and add formaldehyde to this tube. 30 minutes before measuring add 100 μl Propidium Iodine to tube 2, before measuring, added 1 ml of PBS to all samples.
A general note: A flow cytometer gives signals particle by particle.

B1: CPG2 control: carboxypeptidase G2 conjugated to phycoerythrin, control without anti-CEA part (protein)
chain: ALAQKRDNVLFQAATDEQPAVIKTLEKLVNIETGTGDAEGIAAAGNFLEAELKNLGFTVTRSKSAGLVVGDNIVGKIKGRGGKNLLLMSHMDTVYLKGILAKAPFRVEGDKAYGPGIADDKGGNAVILHTLKLLKEYGVRDYGTITVLFNTDEEKGSFGSRDLIQEEAKLADYVLSFEPTSAGDEKLSLGTSGIAYVQVNITGKASHAGAAPELGVNALVEASDLVLRTMNIDDKAKNLRFNWTIAKAGNVSNIIPASATLNADVRYARNEDFDAAMKTLEERAQQKKLPEADVKVIVTRGRPAFNAGEGGKKLVDKAVAYYKEAGGTLGVEERTGGGTDAAYAALSGKPVIESLGLPGFGYHSDKAEYVDISAIPRRLYMAARLIMDLGAGK
B1: the “binding to cells by flow cytometry (in words)” value is recorded as “does not bind”.
